Experimental data from US20260201030A1 (EVOPOINT BIOSCIENCES, published 2026).
Read-outs that look alike come from different tables or passages of the source.

Assays:
human Claudin18.1 [1] = target: T1, human Claudin18.1 (human, UniProt P56856 1-261); assay: FACS on HEK293T-Claudin18.1 (human) cells, antibody 50 µg/mL
T1 construct: whole, on cells; also called CLDN18.1; HEK293T-Claudin18.1 (human)
Method: The specificity of the anti-human Claudin18.2 murine monoclonal antibodies was evaluated by flow cytometry (FACS). The experimental procedures were as follows: The adherent cultured HEK293T-Claudin18.1 (human) cells were digested, collected by centrifugation, and washed three times with pre-cooled PBS. The cells were resuspended in 1% BSA (in PBS) and added to a 96-well pointed bottom plate at 3×10⁵ cells/well, with a volume of 50 μL per well. Each test antibody was diluted to 100 μg/mL with […] (in PBS) and added to the cells at 50 μL/well to achieve a final antibody concentration of 50 μg/mL. The mixture was well mixed and incubated at 4° C. for 1 h. The cells were collected by centrifugation, washed three times with pre-cooled PBS, and resuspended in 50 μL of 1% BSA (in PBS). 1 μL of a fluorescent secondary antibody (Biolegend, cat #405308) was added to each well, and the mixture was well mixed and incubated at 4° C. for 0.5 h. The cells were collected by centrifugation, washed three times with pre-cooled PBS, resuspended in 200 μL of PBS, and assayed on a machine (flow cytometer model: Sony-LE-SA3800GA). The APC fluorescence signal value was obtained, and the gate was set using an isotype control antibody as a negative control to obtain the percentage of positively stained cells (positive rate (0%)).

human Claudin18.2 [2] = target: T2, human Claudin18.2 (human, UniProt P56856-2 1-261); assay: cell-based ELISA on fixed HEK293T-Claudin18.2 (human) cells
T2 construct: whole, on cells; also called CLDN18.2; HEK293T-Claudin18.2 (human)
Method: (§1) The affinity of the anti-human Claudin18.2 murine monoclonal antibodies was evaluated by cell-based ELISA. The experimental procedures were as follows: The day before the experiment, HEK293T-Claudin18.2 (human) cells were plated in a 96-well plate at 5×10⁴ cells/well. On the day of the experiment, the supernatant was removed, the cells in each well were washed once with 300 μL of PBS, and 100 μL of 4% paraformaldehyde was added to each well for fixation at room temperature for 20 min. Paraformaldehyde was then removed, and the cells in each well were washed twice with 300 μL of PBS. 100 μL of 2% BSA (in PBS) was added to each well, and the mixture was blocked at 37° C. for 2 h. After removing the blocking solution, each antibody subjected to gradient dilution (diluted with 2% BSA (in PBS), starting at […], in a 3-fold gradient, for a total of 11 concentration points) was added to the plate at 100 μL/well, and the mixture was incubated at 37° C. for 2 h. The supernatant was removed, and the cells in each well were washed three times with 300 μL of PBST. 100 μL of an anti-mouse IgG HRP secondary antibody (Jackson, cat #115-035-003) in 2% BSA was added to each well, and the mixture was incubated at 37° C. for 1 h. The secondary antibody was then removed, and the cells in each well were washed five times with 300 μL of PBST, followed by the addition of 100 μL of a TMB substrate (Huzhou InnoReagents Co., Ltd.) per well for color development for 5-20 min. The reaction was stopped by adding 50 μL of 2 N HCl to each well, and OD_{450 nm} values were read on a microplate reader (manufacturer: MD, model: SpectraMax). The values obtained were plotted by GraphPad Prism to calculate the EC₅₀ value.

human Claudin18.2 [3] = target: T2, human Claudin18.2; assay: cell-based ELISA on NUGC4 cells (endogenous human Claudin18.2)
human Claudin18.2 [4] = target: T2, human Claudin18.2; assay: cell-based or functional assay
human Claudin18.2 [5] = target: T2, human Claudin18.2; assay: FACS on HEK293T-Claudin18.2 (human) cells
Method: The affinity of the anti-human Claudin18.2 humanized antibodies was detected by flow cytometry. The experimental procedures were as follows: The adherent cultured HEK293T-Claudin18.2 (human), NUGC4-Claudin18.2 (human) and NUGC4 cells were digested, collected by centrifugation, and washed three times with pre-cooled PBS. The cells were resuspended in 1% BSA (in PBS) and added to a 96-well pointed bottom plate at 3×10⁵ cells/well, with a volume of 50 μL per well. Each test antibody was diluted with 1% BSA (in PBS) (starting at 100 μg/mL, diluted in a 3-fold gradient, for 10 concentration points). The test antibody subjected to gradient dilution was added to the cells at 50 μL/well, and the mixture was well mixed and incubated at 4° C. for 1 h. The cells were collected by centrifugation, washed three times with pre-cooled PBS, and resuspended in 50 μL of 1% BSA (in PBS). 1 μL of a fluorescent secondary antibody (Biolegend-410712) was added to each well, and the mixture was well mixed and incubated at 4° C. for 0.5 h. The cells were collected by centrifugation, washed three times with pre-cooled PBS, resuspended in 200 μL of PBS, and assayed on a machine.

human Claudin18.2 [6] = target: T2, human Claudin18.2; assay: cell-based ELISA on HEK293T-Claudin18.2 (human) cells
Method: as §1, with “100 μL of an anti-mouse IgG HRP secondary antibody (Jackson, cat #115-035-003) in 2% BSA was added to each well, and the mixture was incubated at 37° C. for 1 h. The secondary antibody was then removed, and the cells in each well were washed five times with 300 μL of PBST, followed by the addition of 100 μL of a TMB substrate (Huzhou InnoReagents Co., Ltd.) per well for color development for 5-20 min.” left out, “The values obtained were plotted by GraphPad Prism to calculate the EC₅₀ value.” left out
The affinity of the anti-human Claudin18.2 humanized monoclonal antibodies was determined by cell-based ELISA. […]

human Claudin18.2 [7] = target: T2, human Claudin18.2; assay: cell-based ELISA (OD450) on NUGC4 cells (endogenous human Claudin18.2)
human Claudin18.1 [8] = target: T1, human Claudin18.1; assay: FACS on HEK293T-Claudin18.1 (human) cells, antibody 50 µg/mL; remark: listed apart in the source
Method: The specificity of the anti-human Claudin18.2 humanized monoclonal antibodies was determined by flow cytometry (FACS). The experimental procedures were as follows: HEK293T-Claudin18.1 (human) cells were digested, collected by centrifugation, washed three times with pre-cooled PBS, resuspended in 1% BSA (in PBS), and added to a 96-well pointed bottom plate at 3×10⁵ cells/well. Each test antibody with a final concentration of 50 μg/mL was added, and the mixture was incubated at 4° C. for 1 h. The cells were washed three times with pre-cooled PBS, and then 1 μL of a fluorescent secondary antibody (APC: Biolegend-410712 or PE: BioLegend-410708) was added to each well. The mixture was incubated at 4° C. for 0.5 h, and the cells were washed three times with pre-cooled PBS, then resuspended, and assayed on a flow cytometer. For reference, anti-human Claudin18.1 positive control antibodies (positive control antibody-1 and positive control antibody-2) were included in the experiment.

human Claudin18.2 [9] = target: T2, human Claudin18.2; assay: cell-based ELISA on L929-Claudin18.2 (human) cells
human Claudin18.1 [10] = target: T1, human Claudin18.1; assay: FACS on HEK293T-Claudin18.1 (human) cells

B1: 32F7A6 (antibody, V domains shown)
VH: QIQLVQSGPELRKPGETVKISCKASGYTFTAYTMGWVKQAPGKGLEWMAWINTYSGVPTYAADFKGRFAFSLETSASTAYLLINNLKNEDTATYFCARGVRGNSMDYWGQGTSVTVSS
VL: DIVETQSPSSLTVTVGERVTLSCKSSQSLLNSGNQRNYLTWSQQKPGQPPKLLIYWASTRESGVPNRFTGGGSGTYFTLTISSVQVEDLAVYYCQNTYSFPFTFGTGTKLEIK
notes: Murine monoclonal antibody purified from hybridoma supernatant
Q: What does the source list for B1?
A: Mean APC fluorescence signal value (human Claudin18.1 [1]): 411; Positive rate (%) (human Claudin18.1 [1]): 0%; EC50 (human Claudin18.2 [2]): 0.0024 µg/mL

B2: 25C7A5-HZ2 (antibody, human IgG1, kappa)
heavy: not shown
light: EIVLTQSPATLSLSPGERATLSCKASENVKTYVSWYQQKPGQSPRLLIYEASNRYTGVPARFSGSGSATDFTLTISSLEPEDFAVYFCGQTYSFPPTFGQGTKVEIKRTVAAPSVFIFPPSDEQLKSGTASVVCLLNNFYPREAKVQWKVDNALQSGNSQESVTEQDSKDSTYSLSSTLTLSKADYEKHKVYACEVTHQGLSSPVTKSFNRGEC
notes: Humanized IgG1/kappa
Q: What does the source list for B2?
A: EC50 (human Claudin18.2 [3]): 0.122 µg/mL; ADCC activity EC50 (Jurkat-NFAT-CD16a luciferase reporter, HEK293T-Claudin18.2 (human) target cells) (human Claudin18.2 [4]): 0.0488 µg/mL; CDC activity EC50 (guinea pig serum killing, CCK8, HEK293T-Claudin18.2 (human) cells) (human Claudin18.2 [4]): 3.28 µg/mL; EC50 (human Claudin18.2 [5]): 0.293 µg/mL; Maximum signal value (human Claudin18.2 [5]): 119000; EC50 (human Claudin18.2 [6]): 0.0112 µg/mL; Maximum signal value (human Claudin18.2 [7]): 0.313; Positive rate (%) (human Claudin18.1 [8]): 0.55%; EC50 (human Claudin18.2 [9]): 0.0148 µg/mL

B3: 1A6G10 (antibody, V domains shown)
VH: QVQLKESGGGLVKPGGSLKLSCAASGFTFSSYAMSWVRQTPEKRLEWVAAIHSNGGSTYNSDTMRDRFTISRDHAKNTLYLQMSSLRSEDTALYYCGRQSFGNALDYWGQGTSVTVSS
VL: DIQMTQSPSSLTVTAGEKVTLTCKSSQSLLNSGNQKNYLTWYQQKPGQPPKLLIYWASTRESGVPDRFTGSGSGTFFTLTISSVQAEDLAVYFCQNDYVYPFTFGAGTQLELK
notes: Murine monoclonal antibody purified from hybridoma supernatant; also called 1A6G11
Q: B3 was tested. Which “Mean APC fluorescence signal value” (human Claudin18.1 [1]) did it give?
A: 111

Q: And the “Positive rate (%)” value (human Claudin18.1 [1])?
A: 0.16%

Q: Does B3 bind (human Claudin18.1 [10])?
A: no binding (tested: 50 µg/mL)

Q: And the EC50 (human Claudin18.2 [2])?
A: 0.00502 µg/mL

B4: 25C7A5 (antibody, V domains shown)
VH: EVQLQQPGAELVKPGTSVKLSCKASGYTFTNYWLHWVRQRPGQGLEWIGMMHPISGSSNNNERFKSKATLTVDKSSTTAYMQLSRMTSEDSAVYYCARGLLSAMDYWGQGTSVTVSS
VL: CIVLTQSPKSMSMSVGERVTLSCKASENVKTYVSWYQQRPEQSPKLLIYEASNRYTGVPDRFTGSGSATVFTLTISSVQTEDLANYFCGQTYSFPPTFGSGTKLEIK
notes: as for B1
Q: B4 was tested. Which “Mean APC fluorescence signal value” (human Claudin18.1 [1]) did it give?
A: 123

Q: What about the “Positive rate (%)” value (human Claudin18.1 [1]) of the same binder?
A: 0.87%

Q: Does B4 bind (human Claudin18.1 [10])?
A: no binding (tested: 50 µg/mL)

Q: What about the EC50 (human Claudin18.2 [2]) of the same binder?
A: 0.0105 µg/mL

B5: 2D3A11 (antibody, V domains shown)
VH: EVQLQQSGPELVKPGASVRMSCKASGYTFTSYVVHWVKQKPGQGLEWIGYINPYNADSKYNERFKGKATLTSDKSSNSAYMELSSLTSEDSAVYYCSRSYYGNSFDVWGAGTTVTVSS
VL: DIVMTQSPSSLTVTTGEKVTMSCKSSQSLLNSGNQKNYLTWYQQKPGQSPKLLFFWASTRQSGVPDRFTGSGSGTYFTLTISSVQAEDLAVYYCQNDYYFPFTFGTGTKLEIK
notes: as for B1
Q: B5 was tested. Which “Mean APC fluorescence signal value” (human Claudin18.1 [1]) did it give?
A: 134

Q: And the “Positive rate (%)” value (human Claudin18.1 [1])?
A: 0.25%

Q: Does B5 bind (human Claudin18.1 [10])?
A: no binding (tested: 50 µg/mL)

Q: And the EC50 (human Claudin18.2 [2])?
A: 0.00814 µg/mL

B6: 40G11H2 (antibody, V domains shown)
VH: EVQLQQSGAELARPGASVKLSCKASGYTFTSYGIRWVKQRTGQGLEWIGEIYPRGGNTYYDEKFKGKATLTADKSSSTAYMGLRSLTSEDSAVYFCARADYGNSFAYWGQGTLVTVSA
VL: DIVMTQSPSSLTVTAREKVTMSCKSSQSLLNSGNQKNYLTWYHQKPGQPPKLLIYWASTRESGVPDRFTGSGSGTDFTLTISSVQAEDLAVYFCQNAYFYPFTFGTGTKLEIK
notes: Murine monoclonal antibody
Q: For B6, which “Mean APC fluorescence signal value” (human Claudin18.1 [1]) is on record?
A: 160

Q: And the “Positive rate (%)” value (human Claudin18.1 [1])?
A: 0.98%

Q: Does B6 bind (human Claudin18.1 [10])?
A: no binding (tested: 50 µg/mL)

Q: And the EC50 (human Claudin18.2 [2])?
A: 0.00738 µg/mL

B7: 8H11A10 (antibody, V domains shown)
VH: QVQLKESGPVLVAPSQSLSITCTVSGFSLTNYGVHWVRQPPGKGLEWLGVIWSGGRTNYNSALMSRLSISKDNSKSQVFLKMNSLQTDDTAMYYCAKRDGIYGDYWGQGTSVTVSS
VL: DIVETQSPSSLTVTAGEKVTMSCKSSQSLLNSGNQKNYLTWYQQKPGQSPKLLIYWASTRESGVPDRFTGSGFGTDFTLTISSVQAEDLAVYYCQNDYIYPLTFGAGTKLELK
notes: Murine monoclonal antibody
Q: Which “Mean APC fluorescence signal value” (human Claudin18.1 [1]) does the source give for B7 here?
A: 175

Q: And the “Positive rate (%)” value (human Claudin18.1 [1])?
A: 1.21%

Q: Does B7 bind (human Claudin18.1 [10])?
A: no binding (tested: 50 µg/mL)

Q: What about the EC50 (human Claudin18.2 [2]) of the same binder?
A: 0.0123 µg/mL

B8: 23F2F2 (antibody, V domains shown)
VH: QVQLKESGGGLVQPGGSMKLSCAASGFTFSDAWMNWVRQSPEKGLEWVAEIRNKADYHATHYVESVTGRFTISRDDSKSSVYLQMNRLRAEDTGIYYCTRNYGSRFDYWGQGTTLTVSS
VL: DIVETQSPSSLTVTAGEKVTMSCKSSQSLLNSGNQRNYLTWYQQKPGHPPKLLIYWASTRESGVPDRFTGSGSGTDFTLTVTSVQAEDLAVYYCQNDYFYPLAFGTGTKLELK
notes: as for B1
Q: Which results are given for B8?
A: Mean APC fluorescence signal value (human Claudin18.1 [1]): 222; Positive rate (%) (human Claudin18.1 [1]): 2.16%; binding result (human Claudin18.1 [10]): no binding (tested: 50 µg/mL); EC50 (human Claudin18.2 [2]): 0.00602 µg/mL
